According to the RNAGym collection of RNA variant scans (doi:10.1093/nar/gkz1192):

B1: CPEB3 Ribozyme (parent)
chain: UAACAGGGGGCCACAGCAGAAGCGUUCACGUCGCAGCCCCUGUCAGAUUCUGGUGAAUCUGCGAAUUCUGCUGUAUAUCUC

Variants of: B1
Assay: self-cleavage, relative activity (ratio to wild type); higher = more cleavage; in vitro, sequencing
Outline: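 For each CPEB3 ribozyme variant, relative activity is its cleaved/total read fraction divided by the unmutated ribozyme's. Barcoded error-prone PCR libraries were transcribed by T7 RNA polymerase (5 hours, 37°C) and held in DNase I for 15 min before an EDTA stop, with cleavage occurring throughout. Template-switching reverse transcription and Illumina sequencing were used to read the RNAs. A 5-read minimum applied, and results are the mean of three batches.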
UAACAGAGGGCCACAGCAGAAGCGUUCACGUCGCAGCCCCUGUCAGAUUCUGGUGAAUCUGCGAAUUCCGCUGUAUAUCUC [G7A U69C] gave a self-cleavage of 0.26.
Work on UAACAGAGGGCCACAGCAGAAGCGUUCACGUCGCAGCCCCUGUCAGAUUCUGGUGAAUCUGCGAAUUCAGCUGUAUAUCUC [G7A U69A] yielded a self-cleavage of 0.39.
For UAACAGCGGGCCACAGCAGAAGCGUUCACGUCGCAGCCCCUGUCAGGUUCUGGUGAAUCUGCGAAUUCUGCUGUAUAUCUC [G7C A47G], the self-cleavage was 0.43.
With UAACAGAGGGCCACAGCAGAAGCGUUCACGUCGCAGCCCCUGUCAGAUUCUGGUGAAUAUGCGAAUUCUGCUGUAUAUCUC [G7A C59A] the self-cleavage was 0.04.
UAACAGCGGGCCACAGCAGAAGCGUUCACGUCGCCGCCCCUGUCAGAUUCUGGUGAAUCUGCGAAUUCUGCUGUAUAUCUC [G7C A35C] showed a self-cleavage of 0.09.
Variant UAACAGCGGGCCACAGCAGAAGCGUUCACGUCGCGGCCCCUGUCAGAUUCUGGUGAAUCUGCGAAUUCUGCUGUAUAUCUC [G7C A35G] has a self-cleavage of 0.31.
Work on UAACAGACGGCCACAGCAGAAGCGUUCACGUCGCAGCCCCUGUCAGAUUCUGGUGAAUCUGCGAAUUCUGCUGUAUAUCUC [G7A G8C] yielded a self-cleavage of 0.15.
In the case of UAACAGAGGGCCACAGCAGAAGCGUUCACGUCGCAGCCCCUGUCAGAUUCGGGUGAAUCUGCGAAUUCUGCUGUAUAUCUC [G7A U51G], the self-cleavage is reported as 0.1.
Variant UAACAGAGGGCCACAGCAGAAGCGUUCACGUCGCAGCCCCUGUCAGAUUCAGGUGAAUCUGCGAAUUCUGCUGUAUAUCUC [G7A U51A] has a self-cleavage of 0.35.
Variant UAACAGAGGGCCACAGCAGAAGCGUUCACGUCGCAGCCCCUGUCAGAUUCCGGUGAAUCUGCGAAUUCUGCUGUAUAUCUC [G7A U51C] has a self-cleavage of 0.2.
With UAACAGAGGGCCACAGCAGAAGCGUUCACGUCGCAGCCCCUGUCAGAUUCUGGUGAAUCUGCGAAUUCUGCCGUAUAUCUC [G7A U72C] the self-cleavage was 0.48.
For UAACAGAGGGCCACAGCAGAAGCGUUCACGUCGCAGCCCCUGUCAGAUUCUGAUGAAUCUGCGAAUUCUGCUGUAUAUCUC [G7A G53A], the self-cleavage was 0.19.
UAACAGAGGGCCACAGCAGAAGCGUUCACAUCGCAGCCCCUGUCAGAUUCUGGUGAAUCUGCGAAUUCUGCUGUAUAUCUC [G7A G30A] showed a self-cleavage of 0.35.
UAACAGAGGGCCACAGCAGAAGCGUUCACGUCGCAGCCCCUGUCAGAUUCUGGUGAAACUGCGAAUUCUGCUGUAUAUCUC [G7A U58A] showed a self-cleavage of 0.27.
For UAACAGAGGGCCACAGCAGAAGCGUUCACGUCGCAGCCCCUGUCAGAUUCUGGUGAACCUGCGAAUUCUGCUGUAUAUCUC [G7A U58C], the self-cleavage was 0.13.
For UAACAGAGGGCCACAGCAGAAGCAUUCACGUCGCAGCCCCUGUCAGAUUCUGGUGAAUCUGCGAAUUCUGCUGUAUAUCUC [G7A G24A], the self-cleavage was 0.08.
For UAACAGCGGGCCACAGCGGAAGCGUUCACGUCGCAGCCCCUGUCAGAUUCUGGUGAAUCUGCGAAUUCUGCUGUAUAUCUC [G7C A18G], the self-cleavage was 0.33.
UAACAGAGGGCCACAGCAGAAGCGAUCACGUCGCAGCCCCUGUCAGAUUCUGGUGAAUCUGCGAAUUCUGCUGUAUAUCUC [G7A U25A] gave a self-cleavage of 0.15.
UAACAGAGGGCCACAGCAGAAGCGCUCACGUCGCAGCCCCUGUCAGAUUCUGGUGAAUCUGCGAAUUCUGCUGUAUAUCUC [G7A U25C] showed a self-cleavage of 0.33.
Work on UAACAGCGGGCCCCAGCAGAAGCGUUCACGUCGCAGCCCCUGUCAGAUUCUGGUGAAUCUGCGAAUUCUGCUGUAUAUCUC [G7C A13C] yielded a self-cleavage of 0.09.
UAACAGCGGGCCGCAGCAGAAGCGUUCACGUCGCAGCCCCUGUCAGAUUCUGGUGAAUCUGCGAAUUCUGCUGUAUAUCUC [G7C A13G] showed a self-cleavage of 0.32.
With UAACAGCGGGCCUCAGCAGAAGCGUUCACGUCGCAGCCCCUGUCAGAUUCUGGUGAAUCUGCGAAUUCUGCUGUAUAUCUC [G7C A13U] the self-cleavage was 0.26.
Work on UAACAGAGGGCCACAGCAGAAGCGUUCACGUCGCAGCCCCUGUCAGAUUCUGGUGAAUCUGCGAAUUCUGCUGUAUAUCAC [G7A U80A] yielded a self-cleavage of 0.25.
UAACAGAGGGCCACAGCAGAAGCGUUCACGUCGCAGCCCCUGUCAGAUUCUGGUGAAUCUGCGAAUUCUGCUGUAUAUCCC [G7A U80C] gave a self-cleavage of 0.29.
For UAACAGAGGGCCACAGCAGAAGCGUUCACGUCGCAGCCCCAGUCAGAUUCUGGUGAAUCUGCGAAUUCUGCUGUAUAUCUC [G7A U41A], the self-cleavage was 0.13.
With UAACAGAGGGCCACAGCAGAAGCGUUCACGUCGCAGCCCCCGUCAGAUUCUGGUGAAUCUGCGAAUUCUGCUGUAUAUCUC [G7A U41C] the self-cleavage was 0.25.
In the case of UAACAGAGGGCCACAGCAGAAGCGUUCACGUCGCAGCCCCUGCCAGAUUCUGGUGAAUCUGCGAAUUCUGCUGUAUAUCUC [G7A U43C], the self-cleavage is reported as 0.21.
Variant UAACAGAGGGCCACAGCAGAAGCGUUCACGUCGCAGCCCCUGACAGAUUCUGGUGAAUCUGCGAAUUCUGCUGUAUAUCUC [G7A U43A] has a self-cleavage of 0.32.
Work on UAACAGAGGGCCACAGCAGAAGCGUUCACGUCGCAGCCCCUGGCAGAUUCUGGUGAAUCUGCGAAUUCUGCUGUAUAUCUC [G7A U43G] yielded a self-cleavage of 0.15.
For UAACAGCGGGCCACAGCAGAGGCGUUCACGUCGCAGCCCCUGUCAGAUUCUGGUGAAUCUGCGAAUUCUGCUGUAUAUCUC [G7C A21G], the self-cleavage was 0.34.
UAACAGAGGGCCACAGCAGAAGCGUUCACGUCGCAGCCCCUGUCAGAUUCUGGCGAAUCUGCGAAUUCUGCUGUAUAUCUC [G7A U54C] showed a self-cleavage of 0.38.
Variant UAACAGAGGGCCACAGCAGAAGCGUUCACGUCGCAGCCCCUGUCAGAUUCUGGAGAAUCUGCGAAUUCUGCUGUAUAUCUC [G7A U54A] has a self-cleavage of 0.47.
Work on UAACAGAGGGCCACAGCAGAAGCGUUCACGUCGCAGCCCCUGUCAGAUUCUGGGGAAUCUGCGAAUUCUGCUGUAUAUCUC [G7A U54G] yielded a self-cleavage of 0.22.
UAACAGAGGACCACAGCAGAAGCGUUCACGUCGCAGCCCCUGUCAGAUUCUGGUGAAUCUGCGAAUUCUGCUGUAUAUCUC [G7A G10A] showed a self-cleavage of 0.24.
